T1: hCCR4 (human, UniProt P51679 1-360)
T1 construct: whole, on cells
T1 sequence (looked up): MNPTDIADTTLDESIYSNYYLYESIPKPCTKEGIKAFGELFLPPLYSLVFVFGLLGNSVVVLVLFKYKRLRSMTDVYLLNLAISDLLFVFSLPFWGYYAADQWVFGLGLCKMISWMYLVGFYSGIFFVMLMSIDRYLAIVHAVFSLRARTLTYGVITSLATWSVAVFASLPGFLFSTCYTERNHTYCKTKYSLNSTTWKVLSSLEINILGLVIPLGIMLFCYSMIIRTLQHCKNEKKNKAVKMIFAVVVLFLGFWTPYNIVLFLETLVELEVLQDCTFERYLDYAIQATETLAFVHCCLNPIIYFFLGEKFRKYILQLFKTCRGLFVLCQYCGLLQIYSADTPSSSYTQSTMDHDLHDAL

T2: hCCR6 (human, UniProt P51684 1-374)
T2 construct: whole, on cells
T2 sequence (looked up): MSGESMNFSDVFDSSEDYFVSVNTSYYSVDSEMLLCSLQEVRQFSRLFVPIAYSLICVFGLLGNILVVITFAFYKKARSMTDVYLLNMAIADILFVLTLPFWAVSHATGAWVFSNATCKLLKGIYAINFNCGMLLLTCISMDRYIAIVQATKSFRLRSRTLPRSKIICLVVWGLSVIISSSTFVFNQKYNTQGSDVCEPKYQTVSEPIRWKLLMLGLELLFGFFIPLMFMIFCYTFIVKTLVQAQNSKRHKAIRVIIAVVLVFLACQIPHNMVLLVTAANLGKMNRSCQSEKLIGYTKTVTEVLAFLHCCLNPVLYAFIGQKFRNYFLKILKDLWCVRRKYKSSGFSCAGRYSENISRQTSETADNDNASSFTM

T3: hCCR10 (human, UniProt P46092 1-362)
T3 construct: whole, on cells
T3 sequence (looked up): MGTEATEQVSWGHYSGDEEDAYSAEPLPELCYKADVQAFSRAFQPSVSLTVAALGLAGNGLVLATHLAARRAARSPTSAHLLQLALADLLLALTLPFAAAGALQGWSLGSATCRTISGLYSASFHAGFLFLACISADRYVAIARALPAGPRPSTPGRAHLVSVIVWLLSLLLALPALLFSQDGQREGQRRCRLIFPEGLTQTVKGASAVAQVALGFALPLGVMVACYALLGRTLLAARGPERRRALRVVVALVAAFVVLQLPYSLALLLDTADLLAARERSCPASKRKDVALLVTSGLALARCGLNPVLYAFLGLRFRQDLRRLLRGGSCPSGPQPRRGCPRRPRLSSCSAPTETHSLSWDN

T4: hCXCR3 (human, UniProt P49682 1-368)
T4 construct: whole, on cells
T4 sequence (looked up): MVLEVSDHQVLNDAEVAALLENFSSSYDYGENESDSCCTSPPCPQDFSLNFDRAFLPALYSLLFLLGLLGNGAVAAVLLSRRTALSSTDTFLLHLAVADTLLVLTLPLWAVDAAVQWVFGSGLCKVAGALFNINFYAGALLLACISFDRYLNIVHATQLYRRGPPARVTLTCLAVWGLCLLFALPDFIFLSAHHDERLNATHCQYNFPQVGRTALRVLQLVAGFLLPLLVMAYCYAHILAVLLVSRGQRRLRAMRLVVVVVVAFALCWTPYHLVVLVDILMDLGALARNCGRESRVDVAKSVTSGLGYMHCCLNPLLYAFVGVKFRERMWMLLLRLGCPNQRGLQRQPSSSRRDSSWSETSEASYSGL

T5: hCXCR5 (human, UniProt P32302 1-372)
T5 construct: whole, on cells
T5 sequence (looked up): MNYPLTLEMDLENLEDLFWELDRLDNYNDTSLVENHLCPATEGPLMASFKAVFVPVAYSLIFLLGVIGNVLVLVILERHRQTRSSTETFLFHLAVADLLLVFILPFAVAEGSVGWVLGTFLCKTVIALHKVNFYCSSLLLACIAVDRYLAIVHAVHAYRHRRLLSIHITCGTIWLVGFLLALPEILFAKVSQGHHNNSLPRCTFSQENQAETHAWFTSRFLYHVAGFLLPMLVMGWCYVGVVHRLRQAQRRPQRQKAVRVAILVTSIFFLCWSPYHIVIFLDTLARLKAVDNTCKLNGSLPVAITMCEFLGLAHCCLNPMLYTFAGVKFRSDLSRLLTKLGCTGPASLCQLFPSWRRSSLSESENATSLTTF

B1: V62.1-R108H-m47-m38 (antibody, human IgG1, V domains shown)
VH: EVQLLESGGGLVQPGGSLRLSCAASGFTFSSYAMSWVRQAPGKGLEWVSAISGSGGTRYADSVKGRFTISRDNSKNTLYLQMNSLRAEDTAVYYCARQGKTRVYGYHWHGYGSTHALDYWGQGTLVTVSS
VL: EIVLTQSPGTLSLSPGERATLSCRASQSVSSSYLAWYQQKPGQAPRLLIYGASSRATGIPDRFSGSGSGTDFTLTISRLEPEDFAVYYCQQWSSDSVTFGQGTKVEIKR
notes: Tested as an IgG (human IgG1 format); also called V62.1-H-m47-m38; IgG1 62.1-R108H-m47-m38
B2: V62.1-R108H (antibody, human IgG1, V domains shown)
VH: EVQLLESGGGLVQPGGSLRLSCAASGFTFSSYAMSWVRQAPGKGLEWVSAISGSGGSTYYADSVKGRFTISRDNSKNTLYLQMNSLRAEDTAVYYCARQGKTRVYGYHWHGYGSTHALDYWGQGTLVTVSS
VL: EIVLTQSPGTLSLSPGERATLSCRASQSVSSSYLAWYQQKPGQAPRLLIYGASSRATGIPDRFSGSGSGTDFTLTISRLEPEDFAVYYCQQSDYSYPFTFGQGTKVEIKR
notes: Tested as an IgG (human IgG1 format); also called IgG1 V62.1 R108H
B3: V62.1 (antibody, human IgG1, V domains shown)
VH: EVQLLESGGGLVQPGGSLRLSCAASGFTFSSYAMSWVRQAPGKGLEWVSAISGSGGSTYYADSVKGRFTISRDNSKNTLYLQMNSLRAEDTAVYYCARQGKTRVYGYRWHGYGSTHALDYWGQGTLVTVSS
VL: B2 VL
notes: Tested as an IgG (human IgG1 format; DP47 heavy and DPK22 kappa light frameworks) made in CHO-3E7 cells; also called IgG V62.1
B4: V62.1-R108H-m80 (antibody, human IgG1, V domains shown)
VH: EVQLLESGGGLVQPGGSLRLSCAASGFTISPYSITWVRQAPGKGLEWVSQINSYNGKTYYADSVKGRFTISRDNSKNTLYLQMNSLRAEDTAVYYCARQGKTRVYGYHWHGYGSTHALDYWGQGTLVTVSS
VL: B2 VL
notes: Tested as an IgG (human IgG1 format); also called V62.1-H-m80; V62.1-R108H-m80-Wt

These results are taken from US20190389958A1 (MSM PROTEIN TECHNOLOGIES, published 2019).

T6 sequence (P61073 whole entry): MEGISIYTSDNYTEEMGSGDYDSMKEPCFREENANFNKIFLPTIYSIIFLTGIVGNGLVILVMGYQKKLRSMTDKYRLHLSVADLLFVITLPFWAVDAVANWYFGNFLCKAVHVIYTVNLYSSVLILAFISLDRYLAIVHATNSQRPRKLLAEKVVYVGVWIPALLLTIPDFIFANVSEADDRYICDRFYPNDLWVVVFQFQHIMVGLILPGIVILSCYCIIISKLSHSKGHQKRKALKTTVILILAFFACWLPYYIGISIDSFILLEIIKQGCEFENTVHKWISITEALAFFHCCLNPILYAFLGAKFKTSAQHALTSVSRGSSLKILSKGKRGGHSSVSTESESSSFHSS

The first test concerns the target T6, human CXCR4 (human, UniProt P61073 1-352). As to the kind of experiment: cell-based or functional assay.
Regarding B1, the “IC50 (nM), inhibition of SDF-1alpha-induced calcium flux” value came to 5 nM.

B2: the “IC50 (nM), inhibition of SDF-1alpha-induced calcium flux” value was 6.8 nM.

As for B3, the “IC50 (nM), inhibition of SDF-1alpha-induced calcium flux” value came out at 7.4 nM.

For B4, the “IC50 (nM), inhibition of SDF-1alpha-induced calcium flux” value was determined as 7.5 nM.

In another test the target is T6, human CXCR4. As to the kind of experiment: cell-based or functional assay. The source holds these as a separate data set.
For B1, the “% Inhibition of SDF-1alpha-induced chemotaxis of U937 cells (IgG at 100 nM)” value (shortened to “% Inhibition”) worked out at 78%.

B2: the “% Inhibition” value came out at 69%.

As to B3, the “% Inhibition” value amounted to 76%.

As to B4, the “% Inhibition” value worked out at 75%.

Another test has as its target T1, hCCR4. As to the kind of experiment: flow cytometry, IgG 100 nM, cells over-expressing hCCR4. The procedure:
(§1) Cells over-expressing different GPCRs other than CXCR4 and several lines transfected to over-express CXCR4 (R1610-hCXCR4, Cf2Th-hCXCR4 and CHO-hCXCR4) were compared. Cultures were incubated with a test IgG at 100 nM in FACS buffer for 40 min at 4° C. Thereafter, cells were washed twice, stained with anti-human-Fc antibody-PE conjugate (Jackson Immunoresearch Laboratories Inc., West Grove, Pa.), washed twice in FACS buffer and then transferred to FIX buffer. Fluorescence intensities were measured by GUAVA PCA-96 at 425V (in triplicate).
(§2) The expression of GPCRs other than CXCR4 was confirmed using commercially available antibodies (positive controls). For example, a commercial anti-CXCR1 antibody was used as a positive control for confirming the expression of CXCR1 on the CXCR1-transfected CHO cells.
In general terms: Flow cytometry measures light scatter and fluorescence of single cells or particles in a stream.
Regarding B1, the MFI is 2.

As for B2, the MFI came to 3.

Molecule B3 returned an MFI of 3.

In turn, B4 yielded an MFI of 2.

The next test deals with T7, hCCR5 (human, UniProt P51681 1-352).
T7 construct: whole, on cells
T7 sequence (P51681 whole entry): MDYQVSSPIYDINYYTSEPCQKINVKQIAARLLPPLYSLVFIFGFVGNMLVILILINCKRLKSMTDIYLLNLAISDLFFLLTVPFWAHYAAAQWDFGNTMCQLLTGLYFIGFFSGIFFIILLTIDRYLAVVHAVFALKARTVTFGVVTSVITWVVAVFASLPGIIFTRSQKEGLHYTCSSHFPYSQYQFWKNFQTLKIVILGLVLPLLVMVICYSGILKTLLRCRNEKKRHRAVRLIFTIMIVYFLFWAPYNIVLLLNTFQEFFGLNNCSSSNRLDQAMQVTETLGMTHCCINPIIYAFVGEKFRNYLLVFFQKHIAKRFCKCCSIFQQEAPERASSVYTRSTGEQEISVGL
Nature of the test: flow cytometry, IgG 100 nM, cells over-expressing hCCR5. As to the method:
as §1, §2
B1 had an MFI of 2.

Turning to B2, the MFI turned out to be 3.

Molecule B3 came in with an MFI of 4.

Molecule B4 yielded an MFI of 8.

A further test deals with T2, hCCR6. Nature of the test: flow cytometry, IgG 100 nM, cells over-expressing hCCR6. As to the method:
as §1, §2
On to B1, for which the MFI was 2.

In turn, B2 returned an MFI of 3.

Molecule B3 yielded an MFI of 3.

In turn, B4 registered an MFI of 10.

In the next test the target is T3, hCCR10. As to the kind of experiment: flow cytometry, IgG 100 nM, cells over-expressing hCCR10. As to the method: as §1, §2
Consider B1, for which the MFI was 2.

The molecule B2 yielded an MFI of 3.

For the molecule B3, the MFI was 4.

Consider B4, for which the MFI worked out at 10.

The next test has as its target T4, hCXCR3. As to the kind of experiment: flow cytometry, IgG 100 nM, cells over-expressing hCXCR3. As to the method: as §1, §2
Consider B1, for which the MFI stood at 2.

Molecule B2 showed an MFI of 3.

Turning to B3, the MFI was determined as 3.

Take B4: the MFI amounted to 2.

The target in a further test is T5, hCXCR5. As to the kind of experiment: flow cytometry, IgG 100 nM, cells over-expressing hCXCR5. As to the method: as §1, §2
Consider B1, for which the MFI turned out to be 2.

B2 registered an MFI of 3.

B3 had an MFI of 4.

As for B4, the MFI was found to be 2.

The target in the next test is T8, hCXCR7 (human, UniProt P25106 1-362).
T8 construct: whole, on cells
T8 sequence (P25106 whole entry): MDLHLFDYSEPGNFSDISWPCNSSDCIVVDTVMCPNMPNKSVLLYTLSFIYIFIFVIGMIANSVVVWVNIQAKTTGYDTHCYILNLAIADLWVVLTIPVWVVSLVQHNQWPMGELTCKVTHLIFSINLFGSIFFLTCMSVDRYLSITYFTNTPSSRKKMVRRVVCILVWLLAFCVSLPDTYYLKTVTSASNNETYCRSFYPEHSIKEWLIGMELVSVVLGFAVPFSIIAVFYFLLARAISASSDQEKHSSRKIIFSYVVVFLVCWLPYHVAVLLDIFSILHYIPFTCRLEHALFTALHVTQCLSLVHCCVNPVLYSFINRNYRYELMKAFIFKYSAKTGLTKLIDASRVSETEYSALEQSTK
As to the kind of experiment: flow cytometry, IgG 100 nM, cells over-expressing hCXCR7. The procedure: as §1, §2
B1 had an MFI of 2.

For B2, the MFI is 4.

On to B3, for which the MFI came out at 3.

In the case of B4, the MFI came to 2.
